According to PMC4014439, “Mlh2 Is an Accessory Factor for DNA Mismatch Repair in Saccharomyces cerevisiae” (PLoS Genetics, 2014):

B1: S. cerevisiae Mlh1-Pms1 complex (complex)
chain 1: MSLRIKALDASVVNKIAAGEIIISPVNALKEMMENSIDANATMIDILVKEGGIKVLQITDNGSGINKADLPILCERFTTSKLQKFEDLSQIQTYGFRGEALASISHVARVTVTTKVKEDRCAWRVSYAEGKMLESPKPVAGKDGTTILVEDLFFNIPSRLRALRSHNDEYSKILDVVGRYAIHSKDIGFSCKKFGDSNYSLSVKPSYTVQDRIRTVFNKSVASNLITFHISKVEDLNLESVDGKVCNLNFISKKSISPIFFINNRLVTCDLLRRALNSVYSNYLPKGNRPFIYLGIVIDPAAVDVNVHPTKREVRFLSQDEIIEKIANQLHAELSAIDTSRTFKASSISTNKPESLIPFNDTIESDRNRKSLRQAQVVENSYTTANSQLRKAKRQENKLVRIDASQAKITSFLSSSQQFNFEGSSTKRQLSEPKVTNVSHSQEAEKLTLNESEQPRDANTINDNDLKDQPKKKQKLGDYKVPSIADDEKNALPISKDGYIRVPKERVNVNLTSIKKLREKVDDSIHRELTDIFANLNYVGVVDEERRLAAIQHDLKLFLIDYGSVCYELFYQIGLTDFANFGKINLQSTNVSDDIVLYNLLSEFDELNDDASKEKIISKIWDMSSMLNEYYSIELVNDGLDNDLKSVKLKSLPLLLKGYIPSLVKLPFFIYRLGKEVDWEDEQECLDGILREIALLYIPDMVPKVDTSDASLSEDEKAQFINRKEHISSLLEHVLFPCIKRRFLAPRHILKDVVEIANLPDLYKVFERC
chain 2: MTQIHQINDIDVHRITSGQVITDLTTAVKELVDNSIDANANQIEIIFKDYGLESIECSDNGDGIDPSNYEFLALKHYTSKIAKFQDVAKVQTLGFRGEALSSLCGIAKLSVITTTSPPKADKLEYDMVGHITSKTTTSRNKGTTVLVSQLFHNLPVRQKEFSKTFKRQFTKCLTVIQGYAIINAAIKFSVWNITPKGKKNLILSTMRNSSMRKNISSVFGAGGMRGLEEVDLVLDLNPFKNRMLGKYTDDPDFLDLDYKIRVKGYISQNSFGCGRNSKDRQFIYVNKRPVEYSTLLKCCNEVYKTFNNVQFPAVFLNLELPMSLIDVNVTPDKRVILLHNERAVIDIFKTTLSDYYNRQELALPKRMCSQSEQQAQKRLKTEVFDDRSTTHESDNENYHTARSESNQSNHAHFNSTTGVIDKSNGTELTSVMDGNYTNVTDVIGSECEVSVDSSVVLDEGNSSTPTKKLPSIKTDSQNLSDLNLNNFSNPEFQNITSPDKARSLEKVVEEPVYFDIDGEKFQEKAVLSQADGLVFVDNECHEHTNDCCHQERRGSTDTEQDDEADSIYAEIEPVEINVRTPLKNSRKSISKDNYRSLSDGLTHRKFEDEILEYNLSTKNFKEISKNGKQMSSIISKRKSEAQENIIKNKDELEDFEQGEKYLTLTVSKNDFKKMEVVGQFNLGFIIVTRKVDNKYDLFIVDQHASDEKYNFETLQAVTVFKSQKLIIPQPVELSVIDELVVLDNLPVFEKNGFKLKIDEEEEFGSRVKLLSLPTSKQTLFDLGDFNELIHLIKEDGGLRRDNIRCSKIRSMFAMRACRSSIMIGKPLNKKTMTRVVHNLSELDKPWNCPHGRPTMRHLMELRDWSSFSKDYEI
notes: Mlh1, S. cerevisiae, expressed from pRDK573 (pGAL1-10-MLH1 TRP1); Pms1, S. cerevisiae, expressed from pRDK1099 (pGAL1-10-PMS1-FLAG LEU2); also called Mlh1-Pms1 heterodimer
B2: S. cerevisiae Mlh1-Mlh2 complex (complex)
chain 1: MSLRIKALDASVVNKIAAGEIIISPVNALKEMMENSIDANATMIDILVKEGGIKVLQITDNGSGINKADLPILCERFTTSKLQKFEDLSQIQTYGFRGEALASISHVARVTVTTKVKEDRCAWRVSYAEGKMLESPKPVAGKDGTTILVEDLFFNIPSRLRALRSHNDEYSKILDVVGRYAIHSKDIGFSCKKFGDSNYSLSVKPSYTVQDRIRTVFNKSVASNLITFHISKVEDLNLESVDGKVCNLNFISKKSISPIFFINNRLVTCDLLRRALNSVYSNYLPKGNRPFIYLGIVIDPAAVDVNVHPTKREVRFLSQDEIIEKIANQLHAELSAIDTSRTFKASSISTNKPESLIPFNDTIESDRNRKSLRQAQVVENSYTTANSQLRKAKRQENKLVRIDASQAKITSFLSSSQQFNFEGSSTKRQLSEPKVTNVSHSQEAEKLTLNESEQPRDANTINDNDLKDQPKKKQKLGDYKVPSIADDEKNALPISKDGYIRVPKERVNVNLTSIKKLREKVDDSIHRELTDIFANLNYVGVVDEERRLAAIQHDLKLFLIDYGSVCYELFYQIGLTDFANFGKINLQSTNVSDDIVLYNLLSEFDELNDDASKEKIISKIWDMSSMLNEYYSIELVNDGLDNDLKSVKLKSLPLLLKGYIPSLVKLPFFIYRLGKEVDWEDEQECLDGILREIALLYIPDMVPKVDTSDASLSEDEKAQFINRKEHISSLLEHVLFPCIKRRFLAPRHILKDVVEIANLPDLYKVFERC
chain 2: MTIHQLSPESQWKIVSSSFIYGPVAAVRELLDNSIDSGAKKVFIDVDSTTGGCEYISVKDDGSGVDIIDRPSMCLEYTTSKMSSLGDISILTTLGFRGEALFLLSNLCNQKGSMQVETKTADDVIGEKWLVDSKGGITNGKRYKVSCPVGTTVILRKLLGGLRARYLEISSRPRKTFDELIYLINHYSLIHRNIRFYFSLVSLQKNGAIERKQMQETLDPKISRARSLSLLARLKKPVPLNFIVEENFVIDEKINLDLILPRMVPESDVINIKRRFKFLSVNERALSLNLETGKTISKLLSSIYRDFSLLDPMVWFINLNCDTKLLDVNIEPEKNDVMIKSFEVIFKKIENKLKLLLEERIGIETNMLGDKHVQPSINEKTSPALVIPTPDAENEISKGCGAVSGKDKTDIPQKNSDLIVPTFYDEANLENTTIVAATPSPTKFSEDKALDEQTQLTISSYRSSSSGSMASEDSTNWRHNFQQELSENSEVAGAGSSTLPSSLTYNYIETIPENEDLELSKDASISNPFMITKIRNVNKKLSENLLEAKRTSCGDANKRGMPNERQLSNTEKKELIKLQQTYGKRNNTVDMTIPRNSKKKVTDNYIKKASCMHKTRPKLMHFSEYTNNYVYTLKNEKIVKHDSDNFAKETLWLRSRDDATSPSSSLLQALRAHVKKPGHIEATTNEWCLFTPDSP
notes: Mlh1, S. cerevisiae, expressed from pRDK573 (pGAL1-10-MLH1 TRP1); Mlh2, S. cerevisiae, MLH2 ORF put in place of the PMS1 ORF of pRDK1099, giving pRDK1664 (pGAL1-10-Mlh2-FLAG LEU2); Purified as a preformed complex through the FLAG tag on Mlh2; used at 40 nM in the SPR assay; also called Mlh1-Mlh2 heterodimer

Key:
S. cerevisiae Msh2-Msh3 = target: T1, S. cerevisiae Msh2-Msh3 (S. cerevisiae, UniProt P25847 1-964; P25336 1-1018); assay: SPR; Biacore T100, 25°C; biotinylated 236 bp DNA (GC base pair, central TG mispair or +T insertion, lacO end blocked by 30 nM LacI) on a streptavidin SA chip; 20 nM Msh2-Msh6 or Msh2-Msh3 with 250 µM ATP injected for 100 s, then the same mixture with 40 nM Mlh1-Pms1 or Mlh1-Mlh2 for 150 s; 25 mM Tris-Cl pH 8.0, 4 mM MgCl2, 110 mM NaCl, 0.01% Igepal, 2 mM DTT, 2% glycerol; signal of the MutL homolog on DNA alone …; conditions: both partners purified
T1 construct: Msh2, S. cerevisiae, expressed from pRDK354 (pGAL1-10-MSH2 URA3); Msh3, S. cerevisiae, expressed from pRDK1596 (pGAL1-10 MSH3-FLAG LEU2); also called Msh2-Msh3 heterodimer; source: S. cerevisiae RDKY2418 with pRDK354 and pRDK1596, purified as described previously

[1] = target: T2, S. cerevisiae wild type Msh2-Msh6 (S. cerevisiae, UniProt P25847 1-964; Q03834 1-1242); assay: as above; conditions: both partners purified
T2 construct: Msh2, S. cerevisiae, wild type, from the pET11 MSH2-MSH6 plasmid; Msh6, S. cerevisiae, wild type, from the pET11 MSH2-MSH6 plasmid; also called Msh2-Msh6 heterodimer; source: E. coli BL21 (DE) RIL, pET11 MSH2-MSH6 plasmid, purified according to a previously published procedure
T2 sequence (P25847 whole entry, chain 1 of 2): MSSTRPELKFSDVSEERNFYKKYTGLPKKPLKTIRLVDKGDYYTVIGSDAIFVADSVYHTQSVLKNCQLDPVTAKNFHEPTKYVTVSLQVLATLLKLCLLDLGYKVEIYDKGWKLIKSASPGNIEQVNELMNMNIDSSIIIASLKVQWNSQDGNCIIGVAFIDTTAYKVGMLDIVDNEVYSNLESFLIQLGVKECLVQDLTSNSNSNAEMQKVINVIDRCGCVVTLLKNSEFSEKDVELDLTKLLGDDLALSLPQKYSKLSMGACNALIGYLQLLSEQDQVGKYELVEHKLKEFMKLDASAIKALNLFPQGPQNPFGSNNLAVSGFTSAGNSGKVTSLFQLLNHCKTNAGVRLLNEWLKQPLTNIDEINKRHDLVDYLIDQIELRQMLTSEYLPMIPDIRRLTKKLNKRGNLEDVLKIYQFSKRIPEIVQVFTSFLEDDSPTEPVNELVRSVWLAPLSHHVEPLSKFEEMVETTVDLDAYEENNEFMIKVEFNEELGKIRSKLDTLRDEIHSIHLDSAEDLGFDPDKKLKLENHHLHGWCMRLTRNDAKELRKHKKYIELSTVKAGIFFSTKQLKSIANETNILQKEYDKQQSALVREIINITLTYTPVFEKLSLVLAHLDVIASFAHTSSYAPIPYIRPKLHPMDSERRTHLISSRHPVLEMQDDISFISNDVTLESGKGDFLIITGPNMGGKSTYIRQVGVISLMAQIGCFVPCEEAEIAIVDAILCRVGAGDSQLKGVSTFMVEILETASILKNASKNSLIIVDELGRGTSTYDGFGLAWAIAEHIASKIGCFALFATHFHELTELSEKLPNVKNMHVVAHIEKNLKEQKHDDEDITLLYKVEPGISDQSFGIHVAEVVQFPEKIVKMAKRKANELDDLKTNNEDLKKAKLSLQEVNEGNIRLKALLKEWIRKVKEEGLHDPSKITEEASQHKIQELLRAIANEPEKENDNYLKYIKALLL
T2 sequence (Q03834 whole entry, chain 2 of 2): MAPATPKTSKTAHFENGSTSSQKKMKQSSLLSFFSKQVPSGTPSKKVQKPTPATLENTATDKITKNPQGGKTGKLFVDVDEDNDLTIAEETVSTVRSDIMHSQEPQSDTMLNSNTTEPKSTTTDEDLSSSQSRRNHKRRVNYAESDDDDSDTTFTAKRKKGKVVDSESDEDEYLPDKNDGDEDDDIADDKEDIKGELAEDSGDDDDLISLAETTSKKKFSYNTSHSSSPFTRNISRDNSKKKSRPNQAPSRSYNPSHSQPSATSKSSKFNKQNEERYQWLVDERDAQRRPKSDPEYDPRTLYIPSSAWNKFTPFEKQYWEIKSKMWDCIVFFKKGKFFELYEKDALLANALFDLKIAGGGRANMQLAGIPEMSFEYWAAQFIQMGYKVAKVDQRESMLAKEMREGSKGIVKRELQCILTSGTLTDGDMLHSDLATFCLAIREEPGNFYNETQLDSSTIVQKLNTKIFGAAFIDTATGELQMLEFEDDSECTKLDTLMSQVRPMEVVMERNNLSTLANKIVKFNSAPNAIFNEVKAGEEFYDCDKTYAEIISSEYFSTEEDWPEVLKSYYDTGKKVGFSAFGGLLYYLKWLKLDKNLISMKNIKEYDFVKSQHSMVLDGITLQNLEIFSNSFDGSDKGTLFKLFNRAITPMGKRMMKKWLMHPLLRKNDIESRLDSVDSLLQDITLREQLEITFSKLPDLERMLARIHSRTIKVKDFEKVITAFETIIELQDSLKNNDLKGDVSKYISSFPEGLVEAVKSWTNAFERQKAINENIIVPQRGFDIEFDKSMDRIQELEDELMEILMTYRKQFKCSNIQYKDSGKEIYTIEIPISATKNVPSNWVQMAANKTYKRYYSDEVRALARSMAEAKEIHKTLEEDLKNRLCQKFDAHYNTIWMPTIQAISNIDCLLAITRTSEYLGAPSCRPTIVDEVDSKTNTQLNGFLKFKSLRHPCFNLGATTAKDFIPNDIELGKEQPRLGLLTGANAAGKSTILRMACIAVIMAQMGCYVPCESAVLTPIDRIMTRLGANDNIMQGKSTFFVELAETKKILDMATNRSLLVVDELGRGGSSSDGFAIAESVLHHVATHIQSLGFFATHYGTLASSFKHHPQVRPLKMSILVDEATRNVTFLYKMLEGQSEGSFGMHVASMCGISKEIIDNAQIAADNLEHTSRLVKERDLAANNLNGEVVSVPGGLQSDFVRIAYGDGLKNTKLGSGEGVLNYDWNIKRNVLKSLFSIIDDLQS

T1 sequence (P25847 whole entry, chain 1 of 2): as the sequence (P25847 whole entry, chain 1 of 2) above
T1 sequence (P25336 whole entry, chain 2 of 2): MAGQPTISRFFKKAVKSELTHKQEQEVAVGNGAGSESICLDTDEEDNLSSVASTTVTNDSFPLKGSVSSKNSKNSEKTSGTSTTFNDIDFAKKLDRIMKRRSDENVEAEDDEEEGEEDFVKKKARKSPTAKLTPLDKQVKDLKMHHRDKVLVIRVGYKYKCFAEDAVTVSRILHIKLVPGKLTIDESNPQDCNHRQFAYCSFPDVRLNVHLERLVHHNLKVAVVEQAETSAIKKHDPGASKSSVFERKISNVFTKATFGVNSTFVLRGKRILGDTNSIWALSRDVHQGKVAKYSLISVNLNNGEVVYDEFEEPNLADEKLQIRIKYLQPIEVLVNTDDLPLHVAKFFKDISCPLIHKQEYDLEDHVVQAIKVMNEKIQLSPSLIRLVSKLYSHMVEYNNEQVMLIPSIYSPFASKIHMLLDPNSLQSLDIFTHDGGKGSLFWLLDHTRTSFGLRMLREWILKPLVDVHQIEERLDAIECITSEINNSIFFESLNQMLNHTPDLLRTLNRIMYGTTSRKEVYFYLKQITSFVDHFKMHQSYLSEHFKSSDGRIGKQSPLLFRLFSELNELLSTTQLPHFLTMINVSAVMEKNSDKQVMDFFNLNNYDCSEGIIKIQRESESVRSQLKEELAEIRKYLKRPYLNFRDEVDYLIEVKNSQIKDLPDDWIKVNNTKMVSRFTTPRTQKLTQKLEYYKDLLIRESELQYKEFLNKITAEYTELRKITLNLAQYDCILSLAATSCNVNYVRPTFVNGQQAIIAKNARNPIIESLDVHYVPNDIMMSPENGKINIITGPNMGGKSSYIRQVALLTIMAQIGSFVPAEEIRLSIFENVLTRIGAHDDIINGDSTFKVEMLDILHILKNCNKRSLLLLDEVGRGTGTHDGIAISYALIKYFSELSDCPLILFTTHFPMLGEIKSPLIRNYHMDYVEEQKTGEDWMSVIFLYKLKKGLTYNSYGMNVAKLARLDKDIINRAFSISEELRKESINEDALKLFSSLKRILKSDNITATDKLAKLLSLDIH

Binder | binding result (S. cerevisiae Msh2-Msh3) | binding result [1]
B1 | binds | binds
B2 | binds | binds
